# Source: US5985822A, “Inhibition of glial cell proliferation with N-CAM homophilic peptides” (The Scripps Research Institute, priority 1995, dated 1999)
# B1: N-CAM: neural cell adhesion molecule purified from early postnatal rat brains by affinity chromatography, mainly polysialylated embryonic form (protein, UniProt P13596 20-858, looked up)
# Neural cell adhesion molecule …: LQVDIVPSQGEISVGESKFFLCQVAGDAKDKDISWFSPNGEKLSPNQQRISVVWNDDDSSTLTIYNANIDDAGIYKCVVTAEDGTQSEATVNVKIFQKLMFKNAPTPQEFKEGEDAVIVCDVVSSLPPTIIWKHKGRDVILKKDVRFIVLSNNYLQIRGIKKTDEGTYRCEGRILARGEINFKDIQVIVNVPPTVQARQSIVNATANLGQSVTLVCDADGFPEPTMSWTKDGEPIENEEEDDEKHIFSDDSSELTIRNVDKNDEAEYVCIAENKAGEQDASIHLKVFAKPKITYVENQTAMELEEQVTLTCEASGDPIPSITWRTSTRNISSEEKASWTRPEKQETLDGHMVVRSHARVSSLTLKSIQYTDAGEYICTASNTIGQDSQSMYLEVQYAPKLQGPVAVYTWEGNQVNITCEVFAYPSATISWFRDGQLLPSSNYSNIKIYNTPSASYLEVTPDSENDFGNYNCTAVNRIGQESLEFILVQADTPSSPSIDRVEPYSSTAQVQFDEPEATGGVPILKYKAEWKSLGEEAWHSKWYDAKEANMEGIVTIMGLKPETRYAVRLAALNGKGLGEISAATEFKTQPVREPSAPKLEGQMGEDGNSIKVNLIKQDDGGSPIRHYLVKYRALASEWKPEIRLPSGSDHVMLKSLDWNAEYEVYVVAENQQGKSKAAHFVFRTSAQPTAIPANGSPTAGLSTGAIVGILIVIFVLLLVVMDITCYFLNKCGLLMCIAVNLCGKAGPGAKGKDMEEGKAAFSKDESKEPIVEVRTEEERTPNHDGGKHTEPNETTPLTEPEKGPVETKSEPQESEAKPAPTEVKTVPNEATQTKENESKA
# modifications: polysialylated embryonic form
# Assays:
# [1] = tested on: dividing astrocytes in cerebral cortex, hippocampus or striatum; assay: In vivo labeling index of dividing astrocytes (BrdU with GFAP or S100) after stab lesion with infusion; design: species or system rat; conditions: for Labeling Index (Experimental): N-CAM 250 μg/ml, 3rd Ig domain 5 mg/ml, N-CAM peptide 1 mg/ml, 3 μl infused, n=3
# Procedure: Samples were injected into the brains of rats (Wistar Albino, Male, 200-250 g, Charles River, anesthetized with xylazine (12 mg/kg) and ketamine (90 mg/kg) through a 26 gauge needle. The needle point was placed at the stereotactic coordinates of either the hippocampus, cerebral cortex or striatum (Table 2). Bilateral injections of 3-4 μl were made using an Hamilton syringe. Each animal received an infusion of either the purified rat N-CAM (250 μg/ml), the third Ig domain of chicken N-CAM (5 mg/ml), or the rat N-CAM peptide KHIFSDDSSE (SEQ ID NO 2) (1 mg/ml) in PBS into one hemisphere; the other hemisphere was infused with the random peptide (SFSISDEDHK (SEQ ID NO 9), 1 mg/ml in PBS) as a control. The experimental and control sides varied between animals and choice of side had no significant effect on the results. Three μl of each protein or peptide was infused at a rate of 0.2 μl per minute after which the needle was left in place for 5 minutes and then removed. In one experiment, a group of animals received basic fibroblast growth factor (bFGF, 450 ng) in the solutions which contained either the random peptide or the purified N-CAM.
# The samples were either purified N-CAM in phosphate buffered saline (PBS), N-CAM peptide KHIFSDDSSE (SEQ. ID. NO. 2) (1 mg/ml or 10 mg/ml) in PBS, or the corresponding random peptide SFSISDEDHK (SEQ ID NO 9) (1 mg/ml) (see Example 3 above). The injection rate was about 0.2 μl/min; the needle was left in place for 5 minute after the injection. Each animal received either the purified N-CAM or the N-CAM peptide injected into one side of the brain and the corresponding structure on the other side was injected with the random peptide as a control.
# Three animals were examined for each treatment and brain region described. Animals were maintained for a postinjection survival time of about 70-72 hours. During that time they received five injections of bromodeoxyuridine (Brdu) dissolved in 0.007 N NaOH (120 mg/kg, intraperitoneal). Two of the three animals that had been injected in the hippocampus received Brdu approximately 18, 28, 42, 52, and 70 hours after the stereotactic surgery. All of the animals that had been injected in the cerebral cortex or the striatum and one animal injected in the hippocampus received Brdu approximately 2, 18, 28, 42, and 52 hours after the stereotactic surgery.
# Animals were perfused under anesthesia with about 30 ml of ice-cold PBS followed by about 400 ml of ice-cold […] in PBS. The brains were then removed and postfixed for 2-16 hours in 4% paraformaldehyde in PBS then placed in succeeding solutions of ascending concentrations of sucrose (12%, 18%, and 24%). The brains were then sectioned on a cryostat at a thickness of 10 μm.
# Non-specific binding on the sections was blocked by incubation in 8% fetal bovine serum (FBS) in PBS. Sections were then incubated in polyclonal antibody to glial fibrillary acidic protein (GFAP; 1:100 dilution, Dako) in 0.2% Triton X-100, 8% FBS/PBS for 24 - 48 hr at 4° C. The sections were processed using a biotinylated secondary antibody and the Vectastain ABC kit (Vector), and stained with a diaminobenzidine peroxidase substrate kit from Vector or Pierce. The sections were then incubated for 6 minutes in a solution of Proteinase K (Dako), rinsed and incubated in 2 N HCL for 20 minutes at 37° C. The sections were rinsed and blocked in 8% FBS/PBS and incubated in a monoclonal antibody to Brdu (1:40 dilution, Dako), 0.01% Triton X-100, 8% fetal bovine serum/PBS for 24-48 hr at 4° C. The sections were processed using a biotinlyated secondary antibody and the Vectastain ABC kit (Vector), and stained with a VIP peroxidase substrate kit from Vector giving the Brdu positive cells a red color. The sections were then rinsed in PBS and coverslipped in glycerol/PBS.
# GFAP positive cells and cells positive for both GFAP and BRDU were counted under a Zeiss Axiophot light microscope. […]
# C6 glioma cells = assay: Proliferation of C6 glioma cells in SFM at low cell densities; type: cell-based; conditions: externally added N-CAM
molecule,measurement,setting,value
B1,"Percent Difference of labeling index, experimental vs control",[1]; cerebral cortex,-52.1 ± 4.5%
same,Labeling Index (Experimental),[1]; cerebral cortex,10.2 ± 1.5%
same,effect on mitogenic effects of bFGF in vivo,"[1]; cortical lesion, bFGF 450 ng co-infused",able to oppose the mitogenic effects of bFGF
same,"Percent Difference of labeling index, experimental vs control",[1]; hippocampus,-25.2 ± 1.6%
same,Labeling Index (Experimental),[1]; hippocampus,14.6 ± 2.3%
same,inhibition of astrocyte proliferation,[1]; infusion into cerebral cortex at 100 μg/ml,0-10%
same,"Percent Difference of labeling index, experimental vs control",[1]; striatum,-20.8 ± 2.1%
same,Labeling Index (Experimental),[1]; striatum,20.7 ± 0.7%
same,rate of proliferation of C6 glioma cells,C6 glioma cells,decrease their rate of proliferation
